FireProtDB (doi:10.1006/jmbi.2001.4521)

B1: Growth factor receptor-bound protein 2, Q08012 (parent)
chain: MEAIAKHDFSATADDELSFRKTQILKILNMEDDSNWYRAELDGKEGLIPSNYIEMKNHDWYYGRITRADAEKLLSNKHEGAFLIRISESSPGDFSLSVKCPDGVQHFKVLRDAQSKFFLWVVKFNSLNELVEYHRTASVSRSQDVKLRDMIPEEMLVQALYDFVPQESGELDFRRGDVITVTDRSDENWWNGEIGNRKGIFPATYVTPYHS

Variants of: B1
Conditions: Drosophila melanogaster, pH 6, Thermal, CD, phosphate 50 mM, Na2SO4 0.4 M, structure 2A36, whole UniProt chain shown; for unfolding free energy: 25 °C

Variant	unfolding free energy	Tm	change of melting temperature, mutant - wild type (higher = more stable)
T22S	2.4 kcal/mol	63.5 °C	-0.2 °C
T22D	3.3 kcal/mol	73.1 °C	9.4 °C
T22G	4.2 kcal/mol	84.8 °C	21.1 °C
T22F	3.1 kcal/mol	66.7 °C	3 °C
T22N	3.1 kcal/mol		
T22K	1.8 kcal/mol	65 °C	1.3 °C
T22A	2.2 kcal/mol	66.9 °C	3.2 °C
T22L		58 °C	-5.7 °C
T22G Q23D		88.9 °C	25.2 °C
